Results published in publication PMC314469, “Protein Interaction Networks by Proteome Peptide Scanning” (PLoS Biology, 2004).

B1: YDR379W 155-168 (peptide)
chain: VKRPLSPTRINGKS
B2: YDL171C 1275-1288 (peptide)
chain: VIRPGVPTKFTKKQ
B3: YBR284W 663-676 (peptide)
chain: VLEPSKPYKKNPFM
B4: YBR297W 381-394 (peptide)
chain: VHGPGIPMKSLEVA
B5: YIL115C 910-923 (peptide)
chain: VENPFLPAKEERTG
B6: YJR066W 1483-1496 (peptide)
chain: VMKPKSPDKEFFDA
B7: YPR196W 383-396 (peptide)
chain: VHGPVIPMKALEIA
B8: YOR357C 104-117 (peptide)
chain: VMVPHLPGKILLSN
B9: YJL076W 1015-1028 (peptide)
chain: VNTPREPVRSSSKI
B10: YCR042C 478-491 (peptide)
chain: VFLPTAPSKHMDFA
B11: YKL220C 450-463 (peptide)
chain: VKKPARPWRAKPGQ
B12: YKL060C 315-328 (peptide)
chain: VGNPEGPEKPNKKF
B13: YDR085C 535-548 (peptide)
chain: VETPPKPIKKDVRF
B14: YOR067C 374-387 (peptide)
chain: VILPQIPPKLTFIL
B15: YGL194C 43-56 (peptide)
chain: VKHPMKPFRLMLTD
B16: YML109W 711-724 (peptide)
chain: VERPSSPTKTITTE
B17: YMR191W 432-445 (peptide)
chain: VKEPSFPSRSAFSP
B18: YGR288W 386-399 (peptide)
chain: VHGPGVPVKTLEIA
B19: YJL005W 424-437 (peptide)
chain: VIMPEGPRKSVSMA
B20: YGR217W 326-339 (peptide)
chain: VFSPTNPLRIKIAR
B21: YML016C 62-75 (peptide)
chain: VPDPSTPSKPNLEV
B22: YGR184C 643-656 (peptide)
chain: VHDPNIPLRPKEII

Tests used:
Assay in all cases: SPOT array
[1] = target: T1, Yfr024 SH3 (LSB3_YEAST), P43603
T1 chain: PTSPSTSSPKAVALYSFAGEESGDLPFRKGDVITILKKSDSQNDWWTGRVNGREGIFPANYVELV

[2] = target: T2, Boi2 SH3 (BOI2_YEAST), P39969
T2 chain: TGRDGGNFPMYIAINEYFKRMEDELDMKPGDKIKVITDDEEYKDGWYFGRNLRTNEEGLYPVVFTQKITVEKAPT

[3] = target: T3, Yhr016c SH3 (YSC84_YEAST), P32793
T3 chain: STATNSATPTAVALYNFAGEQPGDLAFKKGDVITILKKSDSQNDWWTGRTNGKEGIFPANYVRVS

[4] = target: T4, Boi1 SH3 (BOI1_YEAST), P38041
T4 chain: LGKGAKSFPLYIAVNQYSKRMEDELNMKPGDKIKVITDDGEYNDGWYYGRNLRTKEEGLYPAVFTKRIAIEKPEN

[5] = target: T5, Rvs167 SH3 (RV167_YEAST), P39743
T5 chain: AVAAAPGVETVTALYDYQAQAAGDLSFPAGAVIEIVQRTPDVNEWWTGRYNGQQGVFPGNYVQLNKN

Binder | normalised SPOT signal, Boehringer light units (BLU); mean over the file's lines of this peptide [1] | normalised SPOT signal, Boehringer light units (BLU); mean over the file's lines of this peptide [2] | normalised SPOT signal, Boehringer light units (BLU); mean over the file's lines of this peptide [3] | normalised SPOT signal, Boehringer light units (BLU); mean over the file's lines of this peptide [4] | normalised SPOT signal, Boehringer light units (BLU); mean over the file's lines of this peptide [5]
B1 | 2290 | 49 | 499 | 208 | 445
B2 | 202 | 63.3 | 125 | 121 | 58.1
B3 | 238 | 84 | 127 | 116 | 5.8
B4 | 32.9 | 49.9 | 381 | 44.3 | 43.5
B5 | 82.3 | 15.7 | 188 | 7.6 | 0
B6 | 852 | 134 | 280 | 90.1 | 48.3
B7 | 138 | 27.7 | 92.9 | 56.4 | 27.7
B8 | 413 | 83.6 | 387 | 253 | 58
B9 | 910 | 30.9 | 99.4 | 75.8 | 69.7
B10 | 242 | 46.3 | 44.5 | 100 | 208
B11 | 5310 | 88.2 | 314 | 90.9 | 49.8
B12 | 186 | 50.6 | 131 | 255 | 34.3
B13 | 677 | 70.6 | 372 | 65 | 86.3
B14 | 812 | 10.1 | 158 | 107 | 10
B15 | 3950 | 203 | 3110 | 101 | 358
B16 | 0 | 45.2 | 159 | 39.5 | 24.4
B17 | 1090 | 41.9 | 246 | 44.6 | 59
B18 | 43.4 | 56.6 | 116 | 114 | 52.7
B19 | 1120 | 232 | 358 | 75.3 | 176
B20 | 648 | 16.2 | 151 | 110 | 1.8
B21 | 136 | 12.4 | 157 | 16.2 | 19.5
B22 | 562 | 57.8 | 110 | 22.9 | 51.5
